Molecular target: T1, PD-1H (Homo sapiens, UniProt Q9H7M9)
T1 construct: Flag (N); expressed in transfected cells; host or cells: HEK293
Assay: Co-immunoprecipitation of c-myc tagged MMP-13 constructs with Flag-PD-1H in HEK293 cells
Format: binding
Conditions: HEK293 cells co-transfected with Flag-PD-1H; IP with anti-c-myc; FIG. 5A
Protocol: To identify key binding domains between PD-1H and MMP-13, a series of truncated deletion mutants was tested. The MMP-13 zymogen has a pro-peptide domain (aa 20-103) that maintains latency, a catalytic domain (aa 103-268) containing the catalytic zinc-binding motif, and a hinge linker region (aa 269-280) that connects the catalytic domain region with the C-terminal hemopexin domain (aa 281-471).
WCL were analyzed as input. […].

B1: Hem: MMP-13 truncation mutant containing the hemopexin domain (delta aa 37-267) (protein)
chain: LPLPSGGDEDDLSEEDLPGDEDPNPKHPKTPDKCDPSLSLDAITSLRGETMIFKDRFFWRLHPQQVDAELFLTKSFWPELPNRIDAAYEHPSHDLIFIFRGRKFWALNGYDILEGYPKKISELGLPKEVKKISAAVHFEDTGKTLLFSGNQVWRYDDTNHIMDKDYPRLIEEDFPGIGDKVDAVYEKNGYIYFFNGPIQFEYSIWSNRIVRVMPANSILWC
modifications: left off: small tags and cut ends
B1 was tested, and the “binding to PD-1H (co-IP)” value was “retained only a fraction of the wild-type binding activity”.

— patent US20230330196A1, “IMMUNOSUPPRESSIVE AGENTS” (The Trustees of Columbia University in the City of New York, priority 2020, published 2023)
